Test results published in patent US20250230234A1.

Tests used:
[1] = molecular target: human GPRC5D (full length, on cells) (human) (UniProt Q9NZD1); assay: flow cytometry on FreeStyle 293-F cells expressing hGPRC5D; negative control
[2] = molecular target: human GPRC5D-human GPRC5A chimera (Nterm) (human) (UniProt Q9NZD1); assay: flow cytometry on FreeStyle 293-F cells expressing the chimera (Nter); negative control
[3] = molecular target: human GPRC5D-human GPRC5A chimera (85-93) (human) (UniProt Q9NZD1); assay: flow cytometry on FreeStyle 293-F cells expressing the chimera (aa85-aa93); negative control
human GPRC5D-human GPRC5A chimera (85-93) (human), sequence (Q9NZD1 other isoform, or with tags, fused parts or gaps mutant): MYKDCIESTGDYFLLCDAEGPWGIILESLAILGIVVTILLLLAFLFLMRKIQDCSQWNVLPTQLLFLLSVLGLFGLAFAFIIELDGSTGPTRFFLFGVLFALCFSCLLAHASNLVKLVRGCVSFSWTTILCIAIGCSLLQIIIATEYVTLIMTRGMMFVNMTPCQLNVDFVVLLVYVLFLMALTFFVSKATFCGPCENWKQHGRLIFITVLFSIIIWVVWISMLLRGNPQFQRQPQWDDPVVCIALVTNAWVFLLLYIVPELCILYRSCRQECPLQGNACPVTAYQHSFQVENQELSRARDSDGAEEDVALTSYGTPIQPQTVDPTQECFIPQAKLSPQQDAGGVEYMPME

[4] = molecular target: human GPRC5D-human GPRC5A chimera (145-167) (human) (UniProt Q9NZD1); assay: flow cytometry on FreeStyle 293-F cells expressing the chimera (aa145-aa167); negative control
human GPRC5D-human GPRC5A chimera (145-167) (human), sequence (Q9NZD1 other isoform, or with tags, fused parts or gaps mutant): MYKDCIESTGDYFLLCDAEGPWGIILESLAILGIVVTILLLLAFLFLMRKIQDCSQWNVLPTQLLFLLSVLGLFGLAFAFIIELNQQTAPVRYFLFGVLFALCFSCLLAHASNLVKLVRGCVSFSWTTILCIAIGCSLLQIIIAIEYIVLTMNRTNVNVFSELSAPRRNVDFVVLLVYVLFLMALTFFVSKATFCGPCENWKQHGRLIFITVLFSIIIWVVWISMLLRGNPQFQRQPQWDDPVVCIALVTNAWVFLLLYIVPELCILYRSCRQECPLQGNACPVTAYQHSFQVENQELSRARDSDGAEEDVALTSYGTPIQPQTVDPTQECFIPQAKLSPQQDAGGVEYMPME

[5] = molecular target: human GPRC5D-human GPRC5A chimera (226-239) (human) (UniProt Q9NZD1); assay: flow cytometry on FreeStyle 293-F cells expressing the chimera (aa226-aa239); negative control
human GPRC5D-human GPRC5A chimera (226-239) (human), sequence (Q9NZD1 other isoform, or with tags, fused parts or gaps mutant): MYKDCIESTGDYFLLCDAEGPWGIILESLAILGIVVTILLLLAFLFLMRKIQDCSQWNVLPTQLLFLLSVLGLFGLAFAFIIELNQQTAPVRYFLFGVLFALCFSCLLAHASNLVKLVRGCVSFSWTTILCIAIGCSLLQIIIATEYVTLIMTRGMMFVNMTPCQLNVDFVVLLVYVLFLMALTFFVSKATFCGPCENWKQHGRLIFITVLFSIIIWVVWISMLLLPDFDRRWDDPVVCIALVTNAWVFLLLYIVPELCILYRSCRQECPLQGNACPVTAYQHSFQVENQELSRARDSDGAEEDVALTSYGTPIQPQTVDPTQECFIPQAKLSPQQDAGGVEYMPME

human GPRC5D-human GPRC5A chimera (Nterm) (human), sequence (Q9NZD1 other isoform, or with tags, fused parts or gaps mutant): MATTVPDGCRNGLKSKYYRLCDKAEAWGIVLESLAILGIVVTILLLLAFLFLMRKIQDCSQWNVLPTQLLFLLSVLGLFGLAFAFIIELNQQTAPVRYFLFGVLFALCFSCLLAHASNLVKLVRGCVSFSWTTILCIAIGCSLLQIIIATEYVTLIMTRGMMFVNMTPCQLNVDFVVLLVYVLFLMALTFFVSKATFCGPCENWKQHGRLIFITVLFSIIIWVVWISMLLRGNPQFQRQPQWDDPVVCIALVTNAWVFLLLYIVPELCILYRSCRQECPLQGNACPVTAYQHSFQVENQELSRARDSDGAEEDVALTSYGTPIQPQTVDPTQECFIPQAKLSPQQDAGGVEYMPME
human GPRC5D (full length, on cells) (human), sequence (Q9NZD1 whole entry): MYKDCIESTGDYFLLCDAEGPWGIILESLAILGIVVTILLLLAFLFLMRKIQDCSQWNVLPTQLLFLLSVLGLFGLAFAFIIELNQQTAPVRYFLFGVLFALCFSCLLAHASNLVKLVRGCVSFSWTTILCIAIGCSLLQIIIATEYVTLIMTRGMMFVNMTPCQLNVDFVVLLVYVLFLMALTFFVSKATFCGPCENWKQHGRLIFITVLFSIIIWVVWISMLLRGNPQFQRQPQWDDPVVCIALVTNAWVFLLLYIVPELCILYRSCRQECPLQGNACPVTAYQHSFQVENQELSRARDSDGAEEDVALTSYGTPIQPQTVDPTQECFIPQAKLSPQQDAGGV

Isotype control IgG1 in wildtype format (antibody to an irrelevant small molecule target)
MFI [1]: 27400 | MFI [2]: 24700 | MFI [3]: 29700 | MFI [4]: 32500 | MFI [5]: 29800
